This is an account of results in paper PMC11182496, “Dissecting positive selection events and immunological drives during the evolution of adeno-associated virus lineages” (PLOS Pathogens, 2024).

Assay [1] deals with AAV2-G548 capsid (adeno-associated virus 2). The experiment in a line: ELISA; plates coated with 10^9 vector genomes of AAV variants in 0.1 M sodium bicarbonate buffer pH 9.6 overnight at 4°C; antibody serially diluted in PBS with 1% BSA, 37°C for 1.5 hours; anti-mouse IgG-HRP, OD450; EC50 from a sigmoidal fit. Background: An ELISA detects its analyte on a solid surface through an enzyme-linked reagent.

For assay [2], the target named is AAV2-E548 capsid (wild-type AAV2 capsid) (Adeno-associated virus 2, wild type …, UniProt P03135). The experiment in a line: cell-based or functional assay.
Assay [3] concerns the target AAV2-G548 capsid (adeno-associated virus 2).

Sequence of AAV2-E548 capsid (wild-type AAV2 capsid) (P03135 whole entry, looked up, the tested form may be a part): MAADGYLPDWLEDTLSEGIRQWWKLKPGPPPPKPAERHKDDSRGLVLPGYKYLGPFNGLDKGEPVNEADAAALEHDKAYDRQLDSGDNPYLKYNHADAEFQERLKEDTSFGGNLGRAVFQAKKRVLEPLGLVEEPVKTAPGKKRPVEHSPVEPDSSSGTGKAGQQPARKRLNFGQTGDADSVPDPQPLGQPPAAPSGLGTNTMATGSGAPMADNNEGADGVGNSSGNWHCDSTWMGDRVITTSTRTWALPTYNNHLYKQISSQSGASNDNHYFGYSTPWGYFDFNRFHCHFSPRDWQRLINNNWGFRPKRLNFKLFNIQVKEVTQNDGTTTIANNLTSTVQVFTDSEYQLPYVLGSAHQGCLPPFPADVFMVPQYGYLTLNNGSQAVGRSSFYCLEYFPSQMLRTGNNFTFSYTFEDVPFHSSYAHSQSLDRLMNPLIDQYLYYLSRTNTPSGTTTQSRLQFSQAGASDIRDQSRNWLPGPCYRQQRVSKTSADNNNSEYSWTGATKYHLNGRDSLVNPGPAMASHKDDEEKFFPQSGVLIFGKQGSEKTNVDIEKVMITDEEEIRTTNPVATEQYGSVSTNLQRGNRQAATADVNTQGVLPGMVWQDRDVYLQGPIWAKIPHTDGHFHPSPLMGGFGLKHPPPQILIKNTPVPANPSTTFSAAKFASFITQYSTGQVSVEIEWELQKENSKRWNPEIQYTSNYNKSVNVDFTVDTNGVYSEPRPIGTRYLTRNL

B1: mouse monoclonal antibody A20 (antibody, V domains shown)
VH: DVQLQESGPDLVKPSQSLSLTCTVTGYSITSGYTWHWIRQFPGNKQEWMGYIHFSGYTNYNPSLKSRVSITRDTSKNQFFLHLNSVTTEDTATYYCARGDYGYEWFTYWGQGTLVTVSA
VL: DIQMTQSSSSFSVSLGDRVTITCKASEDIHNRLAWYKQKPGNAPRLLISGATSLETGVPSRFSGSGSGKDYTLSITSLQNEDVATYYCQQYWIGPFTFGSGTNLEIK
In assay [1], B1 showed an OD450 at the highest A20 concentration (10 μg/ml) of 0.132 OD450. For the same molecule, the “neutralization of the lacZ AAV vector's transduction of 293 cells (β-galactosidase assay), average IC50” value in assay [2] was determined as 0.2 µg/mL; in assay [3] it was 0.201 µg/mL.
